Reference: article PMC4041450

T1: GST-His-SHARP R3-4h (Homo sapiens, UniProt Q96T58 436-620)
T1 sequence: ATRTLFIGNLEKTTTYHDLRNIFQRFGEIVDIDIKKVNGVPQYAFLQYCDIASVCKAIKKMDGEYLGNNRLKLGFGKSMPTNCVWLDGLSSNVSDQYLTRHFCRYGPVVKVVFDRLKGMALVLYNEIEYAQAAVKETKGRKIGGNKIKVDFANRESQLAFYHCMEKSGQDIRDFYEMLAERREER

T2: SHARP R2-3-4h (SHARP-RRM) (Homo sapiens, UniProt Q96T58 335-620)
T2 sequence: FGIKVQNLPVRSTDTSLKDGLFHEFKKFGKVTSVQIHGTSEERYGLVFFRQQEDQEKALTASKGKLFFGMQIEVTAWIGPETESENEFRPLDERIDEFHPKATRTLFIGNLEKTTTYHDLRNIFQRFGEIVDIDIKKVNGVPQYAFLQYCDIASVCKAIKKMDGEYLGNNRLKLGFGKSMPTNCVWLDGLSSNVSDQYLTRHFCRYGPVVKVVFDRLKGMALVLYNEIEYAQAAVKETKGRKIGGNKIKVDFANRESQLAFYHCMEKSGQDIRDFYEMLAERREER


Assays:
GST-His-SHARP R3-4h = target: T1, GST-His-SHARP R3-4h; experiment: UV crosslinking
[1] = target: T2, SHARP R2-3-4h (SHARP-RRM); experiment: competition

Binder | binding result (GST-His-SHARP R3-4h) | binding result [1]
SRA RNA H12-H13 extended (structured_RNA) RNA: GGGAGCAGGUAUGUGAUGACAUCAGCCGACGCCUGGCACUGCUGCAGGAACAGUGGGCUGGAGGAAAGUUGUCAAUACCUGUAAGAGACCGAAUUCACUGGCCGUCGUUUUACAACGUCGUGACUGGGAAAAC | binds | 
AAAAAAAAAAAAAAA (ssRNA) [A15] |  | no binding
